Consider eight sequences from the DeepSol protein solubility set.

The data set in a line: soluble on expression in E. coli; label from the status in PepcDB or PDB records.
On to “METPKGTIIFTTVGRTHYGFDVFSLNIATSVERRLTDGVSVNFNAQFVNDKSDDVVFVSERNGSARIYKTRSGISKPEQIPGAPESYFHDRPIITQNNRLYFISAHEQPDRYFKNWSALYTVELNSAKREVTRVTPPDTADFSPAVSQSGDFLAVASYGTRSWGGEFHEINTDITVFKASKPETRVVICERGGWPTWSGDSTVFFHHQADDGWWSIFRVDIPENFTEYTDFPITPIRVTPSGLHCFTPAAFRDGKRIALATRRRGVNHRHIEIYDLENTTFQPVTESLNPSFHHYNPFVSPDSEFLGYHRFRGESTQGESIVPNIESIVSPIKTLRLLRINGSFPSSSPNGDLIALNSDFDINGGIKVSKSDGSKRWTLIKDRTAFYNSWSPTERHVIYTSLGPIFSPARIAVQIARIKFDPSDLTADKEDLPCDVKILTLENTGNNAFPSCSPDGKSIVFRSGRSGHKNLYIVDAVNGESNGGGIRRLTDGPWIDTMPCWSPKGDLIGFSSNRHNPENTAVFGAYVVRPDGTGLRRIQISGPEGSEEAARERVNHVSFNKDGDWLVFAANLSGVTAEPVTMPNQFQPYGDLYVVKLDGTGLRRLTWNGYEDGTPTWHTADELDLSQLNLNGQDGDKLEGQFEEPLWISCDI”, for which the “soluble on expression in E. coli” value is given as “soluble”.

Take “MGSDKIHHHHHHMKRVQNLLVAVGLSPNYHRRTYPSGKKSLVVRFYATLTPGLEDVAAKEVESFGCKVEEIRERRGRIFFSGEKSAIPLLNHFSRTLERLNVLLLRCEVEGLDDIYAAVKGLDFSFVKGKSFAIRSLRVGEHDFTSMDIARVAGQAVIDSFMESYGERLKVNLNQPDVIIRVELVDSELFVGVDTTGDDAMHKRWWRVYNHPAHLNAAIACGMLRIADWKVDESLIDPMCGSGTIPIEAALMVRNVPNLRDFAYKKLCEWELAFEPNEVRLKLYGMEKFRKHLVGAIRNAVNAGVADTIEFRQGDATEMTGEYDVIITNPPYGLRIHRKGAIERLYHSFARAAKRCMNQNSRLVIITAEHRVFANAAEEAGLQCTHERFVKYGGLLTKIMVFMI”: the “soluble on expression in E. coli” value was “not soluble”.

Consider “MATAHYHGSCQCGSVSFEVDADLDHTVICNCSRCKRLGSTLAFAPREKFTLLSGEDKLSEYLFNKHKIHHFFCSTCGIESFAYADGPDGTPMVAVNANCLDGVDPRALKSQAFDGAA”, for which the “soluble on expression in E. coli” value is reported as “not soluble”.

As to “GMHTDVNALFAALWQDYIKMTPSAAKIHQLLGHGAPIINDHIALRTFNIAKVNLSVLAKHFTSIGYVDSGDYKFEQKKLIAKHFEHPDPKQPKVFISELLVEEFSPEVQKSIHGLIDQVDIAATTADNFIYSGRHWDVDKATYQALLAESEYAAWVAALGYRANHFTVSINDLPEFERIEDVNQALKQAGFVLNSSGGEVKGSPEVLLEQSSTMADKVVVNFTDGDVEIPSCFYEFARRYPMANGQLYTGFVAASADKIFESTNAMM”, the “soluble on expression in E. coli” value is on record as “soluble”.

In the case of “MAREAKKDPNELTVEQKLKTLFQLQTMLSKIDEIKTLRGELPLEVQDLEDEIAGLSTRIDKIKAEVDELKSAIAGKRVEIETAKASVEKYKSQQDNVRNNREYDFLTKEIEFQSLEIELCEKRIKEFSADREEKEAEVVKNEQILSERQKDLEQKKGELDEIISETKQEEEKLRDKAKDLETKIEPRLLQSFKRIRKNSRNGLGVVYVQRDACGGCFNKIPPQRQLDIRSRKKVIVCEYCGRIMIDPELAGVQIEHKVEEAPATTTKRAIRRKTAE”, the “soluble on expression in E. coli” value was “not soluble”.

As to “MPFSQIGINGIVNLKKMHVKNYRAPQVSVLNFLPPRHIVLGLENLDIGLGSEFTANAVPIVVEGSLVGQITGMTVALTTELLTDVTGKMNAVVRNCSALIGNSHIVLNPTGPMSIFVKTFEPMINDSVRQRIPEMFCSRLQNLIEKNISKLFEFITKIDLEDYFPKASNVEKDVMNM”, the “soluble on expression in E. coli” value is recorded as “not soluble”.

For the sequence “KQGQTALGVEFGSTRIKSVLIDANNFEVLASGSFEWDNQLVNGIWTYSLDDVWKGLQASYTDLKAEVKDKYDFKLSKIGQIGISAMMHGYLVFDQADKQLAEFRTWRNAITEQAAGELSKLFNFNIPQRWCIAHLYQAILNQEKSVSQIDFMTTLAGYVHWRLTGKKVTGIGDASGIFPIDSNSKDYDQKKLDQFSDLDGVEKQPWDIKRILPKVLLAGQNAGQLTKEGSLLIDPSGDLQDGSVFCPPEGDA”, the “soluble on expression in E. coli” value is given as “not soluble”.

For the sequence “GMTGHIDPTKEVFAQFRANDREGPIHMLNLVRLRPRAAYPDGRETTGAEAYAAYGRDSGPVSERLGGKVVWQGQFELMLIGPQDEHWDHVFIAEYPSVAAFVEMIRDPVYREAVKHRQAAVEDSRLIRLKPLKPGKGFGEIPT”, the “soluble on expression in E. coli” value is listed as “soluble”.
